Experimental data published in US20220074941A1, “HSP90 COMBINATION THERAPY” (Sloan-Kettering Institute for Cancer Research, priority 2011, published 2022).

What was measured:
[1] = tested on: Hsp90 complexes in K562 cell extract; assay: Nano-LC-MS/MS of PU-beads pull-downs; format: binding; conditions: protein identified in PU-beads pull-down of K562 cell extract, QSTAR-Elite QTof MS
Method in brief: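 Lysates pre-cleared overnight at 4 °C with control beads, then pulled down with PU-beads or control beads; eluted proteins (2% SDS boil) gel-separated and analysed by nano LC-MS/MS on a QTof. Mascot identification (p<0.05), spectral counts and sequence coverage evaluated in Scaffold.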

[2] = tested on: Hsp90 complexes in Mia-PaCa-2 cell extract; assay: Nano-LC-MS/MS of PU-beads pull-downs; format: binding, human; conditions: protein identified in PU-beads pull-down of Mia-PaCa-2 cell extract; QSTAR-Elite QTof MS
Method in brief: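 Lysates pre-cleared overnight at 4 °C with control beads underwent PU-bead pull-down; bound proteins were SDS-eluted, gel-separated, digested and analyzed by nano-LC-MS/MS on a QTof. Identifications used significance p<0.05, 0.4 Da tolerances and one missed cleavage; unique peptide (spectral) counts and sequence coverage were reported.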

Molecule	Number of Assigned Spectra, K562 Prep 1 [1]	Number of Assigned Spectra, K562 Prep 2 [1]	Number of Assigned Spectra, Mia-Paca 2 [2]
PHB (protein, UniProt P35232 2-272, looked up) Prohibitin 1: AAKVFESIGKFGLALAVAGGVVNSALYNVDAGHRAVIFDRFRGVQDIVVGEGTHFLIPWVQKPIIFDCRSRPRNVPVITGSKDLQNVNITLRILFRPVASQLPRIFTSIGEDYDERVLPSITTEILKSVVARFDAGELITQRELVSRQVSDDLTERAATFGLILDDVSLTHLTFGKEFTEAVEAKQVAQQEAERARFVVEKAEQQKKAAIISAEGDSKAAELIANSLATAGDGLIELRKLEAAEDIAYQLSRSRNITYLPAGQSVLLQLPQ	5	0	0
PTPLAD1 (protein, UniProt Q9P035 1-362, looked up) Very-long-chain …: MENQVLTPHVYWAQRHRELYLRVELSDVQNPAISITENVLHFKAQGHGAKGDNVYEFHLEFLDLVKPEPVYKLTQRQVNITVQKKVSQWWERLTKQEKRPLFLAPDFDRWLDESDAEMELRAKEEERLNKLRLESEGSPETLTNLRKGYLFMYNLVQFLGFSWIFVNLTVRFCILGKESFYDTFHTVADMMYFCQMLAVVETINAAIGVTTSPVLPSLIQLLGRNFILFIIFGTMEEMQNKAVVFFVFYLWSAIEIFRYSFYMLTCIDMDWKVLTWLRYTLWIPLYPLGCLAEAVSVIQSIPIFNETGRFSFTLPYPVKIKVRFSFFLQIYLIMIFLGLYINFRHLYKQRRRRYGQKKKKIH	2	0	0
SDPR (protein, UniProt O95810 2-425, looked up) Caveolae-associated protein 2: GEDAAQAEKFQHPGSDMRQEKPSSPSPMPSSTPSPSLNLGNTEEAIRDNSQVNAVTVLTLLDKLVNMLDAVQENQHKMEQRQISLEGSVKGIQNDLTKLSKYQASTSNTVSKLLEKSRKVSAHTRAVKERMDRQCAQVKRLENNHAQLLRRNHFKVLIFQEENEIPASVFVKQPVSGAVEGKEELPDENKSLEETLHTVDLSSDDDLPHDEEALEDSAEEKVEESRAEKIKRSSLKKVDSLKKAFSRQNIEKKMNKLGTKIVSVERREKIKKSLTSNHQKISSGKSSPFKVSPLTFGRKKVREGESHAENETKSEDLPSSEQMPNDQEEESFAEGHSEASLASALVEGEIAEEAAEKATSRGSNSGMDSNIDLTIVEDEEEESVALEQAQKVRYEGSYALTSEEAERSDGDPVQPAVLQVHQTS	0	0	4
CSDE1 (protein, UniProt O75534 1-798, looked up) Cold shock domain-containing …: MSFDPNLLHNNGHNGYPNGTSAALRETGVIEKLLTSYGFIQCSERQARLFFHCSQYNGNLQDLKVGDDVEFEVSSDRRTGKPIAVKLVKIKQEILPEERMNGQVVCAVPHNLESKSPAAPGQSPTGSVCYERNGEVFYLTYTPEDVEGNVQLETGDKINFVIDNNKHTGAVSARNIMLLKKKQARCQGVVCAMKEAFGFIERGDVVKEIFFHYSEFKGDLETLQPGDDVEFTIKDRNGKEVATDVRLLPQGTVIFEDISIEHFEGTVTKVIPKVPSKNQNDPLPGRIKVDFVIPKELPFGDKDTKSKVTLLEGDHVRFNISTDRRDKLERATNIEVLSNTFQFTNEAREMGVIAAMRDGFGFIKCVDRDVRMFFHFSEILDGNQLHIADEVEFTVVPDMLSAQRNHAIRIKKLPKGTVSFHSHSDHRFLGTVEKEATFSNPKTTSPNKGKEKEAEDGIIAYDDCGVKLTIAFQAKDVEGSTSPQIGDKVEFSISDKQRPGQQVATCVRLLGRNSNSKRLLGYVATLKDNFGFIETANHDKEIFFHYSEFSGDVDSLELGDMVEYSLSKGKGNKVSAEKVNKTHSVNGITEEADPTIYSGKVIRPLRSVDPTQTEYQGMIEIVEEGDMKGEVYPFGIVGMANKGDCLQKGESVKFQLCVLGQNAQTMAYNITPLRRATVECVKDQFGFINYEVGDSKKLFFHVKEVQDGIELQAGDEVEFSVILNQRTGKCSACNVWRVCEGPKAVAAPRPDRLVNRLKNITLDDASAPRLMVLRQPRGPDNSMGFGAERKIRQAGVID	4	0	0
GPS2 (protein, UniProt Q13227 1-327, looked up) G protein pathway suppressor 2: MPALLERPKLSNAMARALHRHIMMERERKRQEEEEVDKMMEQKMKEEQERRKKKEMEERMSLEETKEQILKLEEKLLALQEEKHQLFLQLKKVLHEEEKRRRKEQSDLTTLTSAAYQQSLTVHTGTHLLSMQGSPGGHNRPGTLMAADRAKQMFGPQVLTTRHYVGSAAAFAGTPEHGQFQGSPGGAYGTAQPPPHYGPTQPAYSPSQQLRAPSAFPAVQYLSQPQPQPYAVHGHFQPTQTGFLQPGGALSLQKQMEHANQQTGFSDSSSLRPMHPQALHPAPGLLASPQLPVQMQPAGKSGFAATSQPGPRLPFIQHSQNPRFYHK	5	0	0
PLBD1 (protein, UniProt Q6P4A8 39-553, looked up) Phospholipase B-like 1: GVYYATAYWMPAEKTVQVKNVMDKNGDAYGFYNNSVKTTGWGILEIRAGYGSQTLSNEIIMFVAGFLEGYLTAPHMNDHYTNLYPQLITKPSIMDKVQDFMEKQDKWTRKNIKEYKTDSFWRHTGYVMAQIDGLYVGAKKRAILEGTKPMTLFQIQFLNSVGDLLDLIPSLSPTKNGSLKVFKRWDMGHCSALIKVLPGFENILFAHSSWYTYAAMLRIYKHWDFNVIDKDTSSSRLSFSSYPGFLESLDDFYILSSGLILLQTTNSVFNKTLLKQVIPETLLSWQRVRVANMMADSGKRWADIFSKYNSGTYNNQYMVLDLKKVKLNHSLDKGTLYIVEQIPTYVEYSEQTDVLRKGYWPSYNVPFHEKIYNWSGYPLLVQKLGLDYSYDLAPRAKIFRRDQGKVTDTASMKYIMRYNNYKKDPYSRGDPCNTICCREDLNSPNPSPGGCYDTKVADIYLASQYTSYAISGPTVQGGLPVFRWDRFNKTLHQGMPEVYNFDFITMKPILKLDIK	0	0	2
STRN (protein, UniProt O43815 1-780, looked up) Striatin: MDEQAGPGVFFSNNHPGAGGAKGLGPLAEAAAAGDGAAAAGAARAQYSLPGILHFLQHEWARFEVERAQWEVERAELQAQIAFLQGERKGQENLKKDLVRRIKMLEYALKQERAKYHKLKYGTELNQGDMKPPSYDSDEGNETEVQPQQNSQLMWKQGRQLLRQYLQEVGYTDTILDVKSKRVRALLGFSSDVTDREDDKNQDSVVNGTEAEVKETAMIAKSELTDSASVLDNFKFLESAAADFSDEDEDDDVDGREKSVIDTSTIVRKKALPDSGEDRDTKEALKEFDFLVTSEEGDNESRSAGDGTDWEKEDQCLMPEAWNVDQGVITKLKEQYKKERKGKKGVKRPNRSKLQDMLANLRDVDELPSLQPSVGSPSRPSSSRLPEHEINRADEVEALTFPPSSGKSFIMGADEALESELGLGELAGLTVANEADSLTYDIANNKDALRKTWNPKFTLRSHFDGIRALAFHPIEPVLITASEDHTLKMWNLQKTAPAKKSTSLDVEPIYTFRAHKGPVLCVVMSSNGEQCYSGGTDGLIQGWNTTNPNIDPYDSYDPSVLRGPLLGHTDAVWGLAYSAAHQRLLSCSADGTLRLWNTTEVAPALSVFNDTKELGIPASVDLVSSDPSHMVASFSKGYTSIFNMETQQRILTLESNVDTTANSSCQINRVISHPTLPISITAHEDRHIKFYDNNTGKLIHSMVAHLEAVTSLAVDPNGLYLMSGSHDCSIRLWNLESKTCIQEFTAHRKKFEESIHDVAFHPSKCYIASAGADALAKVFV	5	1	0
